We go through 2 proteins from paper PMC6196502 (Proceedings of the National Academy of Sciences of the …, 2018).

Series [1] concerns the molecule itself. As to the kind of experiment: solid-state NMR.
Series [2] deals with the molecule itself. As to the kind of experiment: urea-driven polymer dissolution.

Changes are numbered by the printed parent chain. Numbers in names are those of the source.

B1: segmentally labeled mCherry-hnRNPA2-LC D290V (ligated construct, G280C) (domain or fragment, human, UniProt P22626-2 181-341, looked up)
chain: MQEVQSSRSGRGGNFGFGDSRGGGGNFGPGPGSNFRGGSDGYGSGRGFGDGYNGYGGGPGGGNFGGSPGYGGGRGGYGGGGPGYGNQGGGYGGGYDNYGCGNYGSGNYNVFGNYNQQPSNYGPMKSGNFGGSRNMGGPYGGGNYGPGGSGGSGGYGGRSRY
As for B1, in series [1], the binding result is listed as “binds”.

B2: GFP-hnRNPA2-LC D290V (domain or fragment, human, UniProt P22626-2 181-341, looked up)
chain: B1 chain with C100G
As for B2, the binding result in series [2] was “binds”.
